These results are taken from patent US20210238253A1 (GUANGDONG ZHAOTAI INVIVO BIOMEDICINE, published 2021).

The target of experiment [1] is T1, hCD19-his (human CD19 recombinant protein, Pro20-Lys291, His tag at C-terminus) (human, UniProt P15391 20-291).
T1 construct: range 20-291; also called human CD19-His
T1 sequence (looked up): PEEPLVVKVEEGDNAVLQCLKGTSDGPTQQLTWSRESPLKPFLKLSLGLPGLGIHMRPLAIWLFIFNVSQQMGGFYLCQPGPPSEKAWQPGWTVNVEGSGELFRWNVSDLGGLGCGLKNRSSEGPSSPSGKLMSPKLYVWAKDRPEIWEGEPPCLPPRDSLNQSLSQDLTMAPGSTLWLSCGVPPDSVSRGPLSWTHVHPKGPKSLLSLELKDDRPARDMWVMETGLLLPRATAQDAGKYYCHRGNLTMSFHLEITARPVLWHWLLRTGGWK
In words: ELISA, coated hCD19-His, fully humanized antibody titrated. The procedure:
According to the method described in Example 4, 0.5 μg/ml of hCD19-His was spread and incubated. The fully humanized antibodies were serially diluted and added to bind the incubated antigen. The binding signal of each antibody could be detected with HRP-labeled goat […] Fc antibody. The results are shown in FIG. 5 and Table 5, as follows: […]
Background: In an ELISA, binding on a coated surface is turned into a signal by an enzyme label.

For experiment [2], the target named is T2, h41BB (human, UniProt Q07011 24-186).
T2 construct: Coated antigen of the specificity ELISA
In words: ELISA, coated antigen 0.5 µg/ml. The procedure: (§1) According to the method described in Example 4, 0.5 μg/ml of hCD19-His, hVISTA-his, hPD-L1, hCD40, h41BB and hLAG3 were spread and incubated respectively, and 2μg/ml of purified antibodies were added to bind the incubated antigen. The binding signal of each antibody could be detected with HRP-labeled goat anti-rat Fc antibody.

Experiment [3] has as its target T3, hLAG3 (human, UniProt P18627 23-450, limits assumed).
T3 construct: Coated antigen of the specificity ELISA
T3 sequence (looked up): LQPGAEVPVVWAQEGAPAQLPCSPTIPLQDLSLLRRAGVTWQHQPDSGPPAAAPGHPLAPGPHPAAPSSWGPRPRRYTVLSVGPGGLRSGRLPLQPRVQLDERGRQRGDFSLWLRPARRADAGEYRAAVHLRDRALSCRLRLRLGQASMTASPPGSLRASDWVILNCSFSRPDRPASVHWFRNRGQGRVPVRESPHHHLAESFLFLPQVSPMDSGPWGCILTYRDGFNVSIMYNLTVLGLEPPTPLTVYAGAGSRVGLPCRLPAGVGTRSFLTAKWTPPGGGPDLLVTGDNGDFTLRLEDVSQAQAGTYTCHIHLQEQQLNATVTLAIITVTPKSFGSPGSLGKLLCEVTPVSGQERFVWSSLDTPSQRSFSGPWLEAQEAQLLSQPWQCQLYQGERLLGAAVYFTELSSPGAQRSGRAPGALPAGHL
In words: ELISA, coated antigen 0.5 µg/ml. The procedure:
as §1

The target of experiment [4] is T4, hPD-L1 (human, UniProt Q9NZQ7 19-238, limits assumed).
T4 construct: Coated antigen of the specificity ELISA
In words: ELISA, coated antigen 0.5 µg/ml. The procedure:
as §1

Experiment [5] concerns the target T5, hVISTA-his (human, UniProt Q9H7M9 33-194).
T5 construct: Coated antigen of the specificity ELISA
T5 sequence (looked up): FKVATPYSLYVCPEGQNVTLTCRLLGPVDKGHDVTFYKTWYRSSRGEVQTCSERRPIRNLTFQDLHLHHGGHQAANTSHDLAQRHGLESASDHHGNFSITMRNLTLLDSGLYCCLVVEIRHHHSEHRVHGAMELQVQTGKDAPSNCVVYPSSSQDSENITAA
In words: ELISA, coated antigen 0.5 µg/ml. The procedure: as §1

Experiment [6] has as its target T6, hCD40 (human, UniProt P25942 21-193).
T6 construct: Coated antigen of the specificity ELISA
In words: ELISA, coated antigen 0.5 µg/ml. The procedure:
as §1

For experiment [7], the target named is T7, CD19 expressed by Nalm6 cells (UniProt P15391 20-556).
T7 chain: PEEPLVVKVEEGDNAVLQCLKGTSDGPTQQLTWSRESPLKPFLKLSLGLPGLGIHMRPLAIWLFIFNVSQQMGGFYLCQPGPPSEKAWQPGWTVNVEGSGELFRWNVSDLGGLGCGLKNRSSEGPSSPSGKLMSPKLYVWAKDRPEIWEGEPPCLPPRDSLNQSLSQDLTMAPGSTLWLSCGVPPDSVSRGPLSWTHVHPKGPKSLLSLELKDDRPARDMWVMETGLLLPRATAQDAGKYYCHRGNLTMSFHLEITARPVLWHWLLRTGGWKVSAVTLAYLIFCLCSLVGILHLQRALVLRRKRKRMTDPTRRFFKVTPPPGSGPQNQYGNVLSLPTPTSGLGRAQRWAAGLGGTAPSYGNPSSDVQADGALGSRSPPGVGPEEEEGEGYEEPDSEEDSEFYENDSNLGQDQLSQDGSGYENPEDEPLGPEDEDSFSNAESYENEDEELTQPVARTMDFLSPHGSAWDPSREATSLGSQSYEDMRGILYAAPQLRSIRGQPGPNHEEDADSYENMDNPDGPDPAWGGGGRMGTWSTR
In words: flow cytometry. (Flow cytometry measures light scatter and fluorescence of single cells or particles in a stream.)

The target in experiment [8] is T1, hCD19-his (human CD19 recombinant …). In words: ELISA, coated hCD19-His. The procedure:
The antibodies were screened by ELISA according to Example 2. Briefly, […] of hCD19-His (ACRO) were spread and incubated. The purified antibodies were serially diluted to bind the incubated antigen. The binding signal of each antibody could be detected with HRP-labeled goat anti-rat Fc antibody.
Graphpad Prism software was used to calculate the fitting data.

In experiment [9] the target is T8, CD19 expressed by Nalm6 cells (UniProt P15391 20-556, limits assumed).
T8 construct: whole, on cells; Endogenous CD19 on tumor cell lines; also called Nalm6/GL; CD19 antigen on RAJI-GL and NALM6-GL tumor cells
T8 sequence (looked up): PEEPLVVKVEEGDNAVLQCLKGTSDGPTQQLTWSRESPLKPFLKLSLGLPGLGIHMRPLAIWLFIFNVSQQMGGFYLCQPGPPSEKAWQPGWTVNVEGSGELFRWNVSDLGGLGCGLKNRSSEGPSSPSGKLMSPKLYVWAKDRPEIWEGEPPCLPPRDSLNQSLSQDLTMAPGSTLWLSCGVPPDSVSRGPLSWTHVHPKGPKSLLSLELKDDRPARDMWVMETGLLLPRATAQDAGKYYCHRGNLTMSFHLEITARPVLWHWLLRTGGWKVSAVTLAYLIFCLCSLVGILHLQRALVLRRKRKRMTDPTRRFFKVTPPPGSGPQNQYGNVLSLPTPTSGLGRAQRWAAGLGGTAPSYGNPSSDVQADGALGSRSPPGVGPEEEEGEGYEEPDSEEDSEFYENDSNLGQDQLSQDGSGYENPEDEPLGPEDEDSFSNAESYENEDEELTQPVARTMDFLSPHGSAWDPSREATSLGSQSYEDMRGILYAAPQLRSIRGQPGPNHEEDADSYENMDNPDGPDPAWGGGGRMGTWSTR
In words: flow cytometry on Nalm6 cells. The procedure: The CD19-expressing tumor cells Nalm6 in logarithmic growth phase were collected and resuspended in PBS at a cell density of 10⁵/well, 100 μl/well. The diluted CD19 antibodies were added into the well and incubated at 4° C. for 1 hour. The cells were washed three times with flow cytometry wash buffer. Anti-rat IgG-Alexa Fluor 647 (Abcam, Cat #ab150163) was added and incubated at 4° C. for 1 hour. The cells were washed three times with flow cytometry wash buffer. The samples were analyzed by flow cytometry. The results are shown in FIG. 3 and Table 4, as follows: […]

T4 sequence (Q9NZQ7 19-238 limits assumed): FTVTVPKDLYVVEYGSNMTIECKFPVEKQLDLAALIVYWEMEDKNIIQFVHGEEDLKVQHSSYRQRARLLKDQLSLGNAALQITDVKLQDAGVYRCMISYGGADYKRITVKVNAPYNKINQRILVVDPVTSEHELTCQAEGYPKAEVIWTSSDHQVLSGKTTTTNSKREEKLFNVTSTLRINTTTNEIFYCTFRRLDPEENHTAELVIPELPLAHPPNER
T6 sequence (P25942 21-193 limits assumed): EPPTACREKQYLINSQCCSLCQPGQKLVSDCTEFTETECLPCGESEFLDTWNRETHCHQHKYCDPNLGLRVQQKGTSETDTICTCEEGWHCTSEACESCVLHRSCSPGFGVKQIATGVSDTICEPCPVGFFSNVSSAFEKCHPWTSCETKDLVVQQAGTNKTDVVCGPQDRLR

B1: 52F9 fully humanized antibody (recombinant, human IgG1 / kappa) (antibody, V domains shown)
VH: QVQLVESGGGVVQAGRSLRLSCAASGFTFSNYGIHWVRQAPGKGLEWVGVIWHDGSIKNYADFVKGRFTISRDNSEDTLYLQMNSLRAEDTAVYYCAREQGNYYGWGSYKAFDIWGQGTMVTVSS
VL: DIQLTQSPSFLSVFVGDRVTITCRASQGISNYLAWYQQKPGKAPELLLYATSTLQSGVPSRLSGSGSGTEFTLTLSSLQPEDFATYYCQQVYSFPYTFGQGTKLEIK
For orientation: EC50 means the concentration giving half of the maximal effect. Turning to B1, the half-maximal effective concentration (EC50) in experiment [1] amounted to 7.92 ng/mL.

B2: 31A2 (hybridoma antibody) (antibody, V domains shown)
VH: QVQLVESGGGVVQPGRSLRLSCAASGFTFSRHGMHWVRQAPGKGLEWVAVIWYDGSNKYYVDSVKGRFTISRDNSKNTLDLQMNSLRAEDTAVYYCARRSITWDGAFDIWGQGTMVTVSS
VL: DIQMTQSPSTLSASVGDRVTISCRASQSISSWLAWYQQKPGKAPKLLIYKASSLESGVPSRFSGSGSGTEFTLTISSLQPDDFATYYCQQYNSAYTFGQGTKLEIK
notes: hybridoma mAb from H2L2 mouse (human variable, rat constant regions)
Take B2: the binding result in experiment [2], in experiment [3], in [4], in [5] and in [6] was “no binding (tested: 2 µg/ml)” throughout. Moreover, the EC50 worked out at 22900 ng/mL in experiment [7] and 24.9 ng/mL in experiment [8]. Also, the “Maximum mean fluorescence intensity (30 µg/ml)” value in [9] stood at 24700.

B3: 17B6 fully humanized antibody (recombinant, human IgG1 / kappa) (antibody, V domains shown)
VH: QVQLVESGGGVVQPGRSLRLSCEASGFTFSRHGMHWVRQAPGKGLEWVAVIFYDGSQNYYADSVRGRFTISRDNSKNTLSLQMDSLRAEDTAVYYCARRSITWNGGFDIWGQGTMVTVSP
VL: DIQMTQSPSTLSASVGDRVTITCRASQSISSWLAWYQQKPGKAPKLLIYKASSLESGVPSRFSGSGSGTEFTLAISSLQPDDFATYYCQQYNRFYTFGQGTKLEIK
For the molecule B3, in [1], the concentration for a half-maximal effect (EC50) came out at 4.52 ng/mL.

B4: 31A2 fully humanized antibody (recombinant, human IgG1 / kappa) (antibody, V domains shown)
VH: QVQLVESGGGVVQPGRSLRLSCAASGFTFSRHGMHWVRQAPGKGLEWVAVIWYDGSNKYYVDSVKGRFTISRDNSKNTLDLQMNSLRAEDTAVYYCARRSITWDGAFDIWGQGTMVTVSS
VL: DIQMTQSPSTLSASVGDRVTISCRASQSISSWLAWYQQKPGKAPKLLIYKASSLESGVPSRFSGSGSGTEFTLTISSLQPDDFATYYCQQYNSAYTFGQGTKLEIK
As to B4, the concentration giving a half-maximal response (EC50) in experiment [1] was determined as 4.46 ng/mL.

B5: 19D6 (antibody, V domains shown)
VH: QVQLVESGGGVVQPGRSLRLSCAASGFTFSRHGMHWVRQAPGKGLEWVAVIWYDGSNKYYVDSVKGRFTISRDNSKNTLDLQMNSLRAEDTAVYYCARRSITWDGAFDIWGQGTMVTVSS
VL: DIQMTQSPSTLSASVGDRVTVTCRASQSIRSWLAWYQQKPGKAPKLLIYKASSLESGVPSRFSGSGSGTEFTLTISSLQPDDFATYYCQQYNSAYTFGQGTKLEIK
notes: as for B2
In the case of B5, in experiment [8], the EC50 is 73.7 ng/mL. In [9], the “Maximum mean fluorescence intensity (30 µg/ml)” value was determined as 10400.

B6: 11H8 fully humanized antibody (recombinant, human IgG1 / kappa) (antibody, V domains shown)
VH: QVQLVESGGGVVQPGRSLRLSCAASGFTFSRHGMHWVRQAPGKGLEWVAVIWYDGSNQYYVDSVKGRFTISRDNSKNTLDLQMNSLRVEDTAVYYCARRSITWYGGFDIWGQGTMVTVSS
VL: DIQMTQSPSTLSASVGDRVTITCRASQSISSWLAWYQQKPGKAPKLLIYKASSLESGVPPRFSGSGSGTEFTLTISSLQPDDFATYYCQQYNSAYTFGQGTKLEIK
Regarding B6, in experiment [1], the EC50 was found to be 2.63 ng/mL.

B7: 27F11 fully humanized antibody (recombinant, human IgG1 / kappa) (antibody, V domains shown)
VH: QVQLVESGGGVVQPGRSLRLSCAASGFTFSRHGMHWVRQAPGKGLEWVAVIYYDGSNKYYVDSVKGRFTISRDNSKNTLDLQMNSLRAEDTAVYYCARRSITWNGAFDIWGQGTMVTVSS
VL: DIQMTQSPSTLSASVGDRVTISCRASQSISSWLAWYQQKPGKAPKLLIYKASSLESGVPSRFSGSGSGTEFTLTISSLQPDDFATYYCQQYNSAYTFGQGTKLEIK
Consider B7, for which the EC50 in [1] came to 4 ng/mL.

B8: 11H8 (hybridoma antibody) (antibody, V domains shown)
VH: QVQLVESGGGVVQPGRSLRLSCAASGFTFSRHGMHWVRQAPGKGLEWVAVIWYDGSNQYYVDSVKGRFTISRDNSKNTLDLQMNSLRVEDTAVYYCARRSITWYGGFDIWGQGTMVTVSS
VL: DIQMTQSPSTLSASVGDRVTITCRASQSISSWLAWYQQKPGKAPKLLIYKASSLESGVPPRFSGSGSGTEFTLTISSLQPDDFATYYCQQYNSAYTFGQGTKLEIK
notes: as for B2
As for B8, the binding result in experiment [2], in [3], in experiment [4], in experiment [5] and in experiment [6] was “no binding (tested: 2 µg/ml)” each time. For the same molecule, the results for the EC50 in experiment [7] and in experiment [8] were 11800 ng/mL and 30.1 ng/mL, respectively. For the same molecule, in [9], the “Maximum mean fluorescence intensity (30 µg/ml)” value was found to be 23300.

B9: 15F2 fully humanized antibody (recombinant, human IgG1 / kappa) (antibody, V domains shown)
VH: QVQLVESGGGVVQPGRSLRLSCAASGFTFSRHGMHWVRQAPGKGLEWVAVIWYDGSNKYYVDSVKGRFTISRDNSKNTLDLQMNSLRAEDTAVYYCARRSITWDGAFDIWGQGTMVTVSS
VL: DIQMTQSPSTLSASVGDRVTVTCRASQSIRSWLAWYQQKPGKAPKLLIYKASSLESGVPSRFSGSGSGTEFTLTISSLQPDDFATYYCQQYNSAYTFGQGTKLEIK
Consider B9, for which, in experiment [1], the EC50 turned out to be 3.78 ng/mL.
